From patent US20150056222A1 (Regeneron, published 2015)
Substitutions are numbered along the chain they refer to. Numbers in names are those of the source. Values belong to the binder of their own block, whether it stands above or below them.

Tests used:
[1] = target: T1, human prolactin receptor (PRLR) on cells (human, UniProt P16471 25-622); test: cell-based or functional assay
T1 sequence: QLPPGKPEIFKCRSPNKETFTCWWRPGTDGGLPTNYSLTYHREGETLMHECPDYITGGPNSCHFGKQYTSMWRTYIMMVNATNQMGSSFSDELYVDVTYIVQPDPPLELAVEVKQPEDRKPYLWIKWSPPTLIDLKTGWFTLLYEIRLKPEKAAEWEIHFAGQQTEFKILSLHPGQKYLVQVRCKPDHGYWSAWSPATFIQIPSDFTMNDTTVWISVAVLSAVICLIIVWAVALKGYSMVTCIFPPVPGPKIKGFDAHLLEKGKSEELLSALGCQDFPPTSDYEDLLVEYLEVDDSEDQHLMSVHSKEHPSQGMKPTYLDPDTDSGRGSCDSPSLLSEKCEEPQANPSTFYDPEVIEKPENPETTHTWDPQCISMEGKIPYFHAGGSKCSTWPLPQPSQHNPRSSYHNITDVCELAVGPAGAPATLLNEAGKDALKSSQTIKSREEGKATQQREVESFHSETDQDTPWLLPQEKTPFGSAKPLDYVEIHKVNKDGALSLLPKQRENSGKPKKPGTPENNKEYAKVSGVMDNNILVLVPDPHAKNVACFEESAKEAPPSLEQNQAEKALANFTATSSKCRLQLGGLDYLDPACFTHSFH

[2] = target: T2, mouse PRLR on HEK293 cells (mouse, UniProt Q08501 20-608); test: FACS, HEK293/mPRLR cells; further: test concentration or dose not given here
T2 construct: whole, on cells; also called mPRLR; HEK293/mPRLR
T2 sequence (looked up): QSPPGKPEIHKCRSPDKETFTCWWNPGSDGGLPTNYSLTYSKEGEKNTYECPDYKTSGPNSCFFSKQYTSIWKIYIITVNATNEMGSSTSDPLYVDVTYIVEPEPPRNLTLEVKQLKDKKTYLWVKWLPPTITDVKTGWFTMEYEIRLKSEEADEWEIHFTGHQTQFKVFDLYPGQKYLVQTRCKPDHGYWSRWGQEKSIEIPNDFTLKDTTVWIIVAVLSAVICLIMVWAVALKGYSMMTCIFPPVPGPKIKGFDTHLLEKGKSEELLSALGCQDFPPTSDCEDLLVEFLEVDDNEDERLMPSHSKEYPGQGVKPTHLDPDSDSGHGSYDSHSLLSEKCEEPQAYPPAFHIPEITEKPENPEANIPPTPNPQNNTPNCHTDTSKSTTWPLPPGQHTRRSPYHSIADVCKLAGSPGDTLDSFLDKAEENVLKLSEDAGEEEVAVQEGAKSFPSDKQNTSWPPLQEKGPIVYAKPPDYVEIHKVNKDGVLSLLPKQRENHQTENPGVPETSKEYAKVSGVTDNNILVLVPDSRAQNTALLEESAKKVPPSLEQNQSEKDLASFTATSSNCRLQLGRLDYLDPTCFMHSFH

[3] = target: T3, monkey (macaca fascicularis) PRLR on HEK293 cells (macaca fascicularis, UniProt A0A2K5WXK1 25-619); test: FACS, HEK293/mfPRLR cells; further: test concentration or dose not given here
T3 construct: also called mfPRLR; HEK293/mfPRLR
T3 sequence: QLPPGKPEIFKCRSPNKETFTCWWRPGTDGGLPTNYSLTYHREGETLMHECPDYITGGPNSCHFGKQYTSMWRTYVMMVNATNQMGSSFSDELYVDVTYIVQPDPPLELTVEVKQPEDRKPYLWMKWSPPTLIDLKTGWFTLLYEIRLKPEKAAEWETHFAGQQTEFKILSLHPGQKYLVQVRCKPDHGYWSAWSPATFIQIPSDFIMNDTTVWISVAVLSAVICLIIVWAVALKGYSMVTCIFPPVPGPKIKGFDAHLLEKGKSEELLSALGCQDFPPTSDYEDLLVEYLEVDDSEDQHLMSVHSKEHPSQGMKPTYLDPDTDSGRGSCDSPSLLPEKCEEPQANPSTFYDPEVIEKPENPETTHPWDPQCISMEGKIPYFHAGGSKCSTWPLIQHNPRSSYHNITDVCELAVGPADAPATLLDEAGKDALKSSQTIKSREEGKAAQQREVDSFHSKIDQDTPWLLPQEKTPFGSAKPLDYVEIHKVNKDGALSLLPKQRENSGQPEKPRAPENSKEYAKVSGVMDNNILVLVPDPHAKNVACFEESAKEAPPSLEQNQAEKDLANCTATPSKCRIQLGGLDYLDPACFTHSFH

[4] = target: T1, human prolactin receptor (PRLR) on cells; test: FACS, T47D cells (native PRLR); further: test concentration or dose not given here
[5] = target: T1, human prolactin receptor (PRLR) on cells; test: FACS, HEK293/hPRLR cells; further: test concentration or dose not given here
[6] = target: T4, mfPRLR.mmh (soluble monomeric macaca fascicularis PRLR) (macaca fascicularis); test: SPR, 37C, mAb capture
T4 construct: soluble monomeric construct; also called macaca fascicularis (mf) PRLR.mmh
T4 chain: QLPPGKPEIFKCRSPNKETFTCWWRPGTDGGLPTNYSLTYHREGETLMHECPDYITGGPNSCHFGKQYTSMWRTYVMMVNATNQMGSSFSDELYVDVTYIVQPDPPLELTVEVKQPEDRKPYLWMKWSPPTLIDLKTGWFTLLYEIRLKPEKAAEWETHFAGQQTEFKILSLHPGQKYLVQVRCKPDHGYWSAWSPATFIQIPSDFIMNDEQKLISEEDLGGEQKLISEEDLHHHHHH
Procedure: (§1) Measurements were conducted on a T200 Biacore instrument. Kinetic association (kₐ) and dissociation (kd) rate constants were determined by processing and fitting the data to a 1:1 binding model using Scrubber 2.0 curve fitting software. Binding dissociation equilibrium constants (KD) and dissociative half-lives (t_{1/2}) were calculated from the kinetic rate constants as: KD (M)=kd/kₐ; and […].

[7] = target: T5, hPRLR.mmh (soluble monomeric human PRLR) (human); test: SPR, 37C, mAb capture
T5 construct: soluble monomeric construct
T5 chain: T4 chain with V76I, T110A, M125I, T158I, I207T
Procedure: as §1

[8] = target: T6, hPRLR.mFc (soluble dimeric human PRLR) (human); test: SPR, 37C, mAb capture
T6 construct: dimeric construct
T6 chain: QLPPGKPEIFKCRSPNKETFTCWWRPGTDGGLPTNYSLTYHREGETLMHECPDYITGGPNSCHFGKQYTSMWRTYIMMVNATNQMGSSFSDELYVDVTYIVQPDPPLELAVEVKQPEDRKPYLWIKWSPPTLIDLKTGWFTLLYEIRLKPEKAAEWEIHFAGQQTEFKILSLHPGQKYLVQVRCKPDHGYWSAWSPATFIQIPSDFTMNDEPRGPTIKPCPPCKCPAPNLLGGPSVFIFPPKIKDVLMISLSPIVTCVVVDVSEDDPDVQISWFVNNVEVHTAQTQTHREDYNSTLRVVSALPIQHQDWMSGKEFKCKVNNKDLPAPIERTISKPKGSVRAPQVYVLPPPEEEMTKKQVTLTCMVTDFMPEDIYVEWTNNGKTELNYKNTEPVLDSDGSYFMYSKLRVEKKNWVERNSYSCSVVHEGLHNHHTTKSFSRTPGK
Procedure: as §1

[9] = target: T7, human prolactin receptor (PRLR), cell surface-expressed (human, UniProt P16471 25-622); test: cell-based or functional assay
T7 sequence: T1 sequence

% Internalization relative to Control I (alexa488 intensity in intracellular vesicles at 37 C, T47D cells) [1]: 147%
FACS Cell Binding (Fold Above Background) [2]: 1 fold above background
FACS Cell Binding (Fold Above Background) [3]: 24 fold above background
FACS Cell Binding (Fold Above Background) [4]: 34 fold above background
FACS Cell Binding (Fold Above Background) [5]: 37 fold above background
T½ [6]: 4 min
T½ [7]: 4 min
T½ [8]: 58 min
B1: H1H6790P (antibody, human IgG1, V domains shown)
VH: EVQLVESGGGLVQPGGSLRLSCAASGFTFSSYAMTWVRQAPGKGLEWVSAITGSVGNTYYADSVKGRFTISRDNSKNTLYLQMNSLGAEDTAEYYCAKGAGMTTNWYLDLWGRGTLVTVSS
VL: DIVMTQSPDSLAVSLGARATINCKSSQSVLYSSNNQNYLTWYQQKPGQPPKLLIKWASTRESGVPDRFSGSGSGTDFTLTISSLQAEDVAVYYCQQYASSPYTFGQGTKLEIK
notes: human IgG1 Fc (H1H)

% Internalization relative to Control I (alexa488 intensity in intracellular vesicles at 37 C, T47D cells) [1]: 120%
FACS Cell Binding (Fold Above Background) [2]: 1 fold above background
FACS Cell Binding (Fold Above Background) [3]: 23 fold above background
FACS Cell Binding (Fold Above Background) [4]: 33 fold above background
FACS Cell Binding (Fold Above Background) [5]: 29 fold above background
T½ [6]: 9 min
T½ [7]: 5.8 min
T½ [8]: 78.7 min
B2: H1H6960N (antibody, human IgG1, V domains shown)
VH: EVQLVESGGGLVKPGGSLRLSCAASGITFSSYSMNWVRQAPGKGLEWVSSISTRSSLIHYADSVKGRFTISRDNAKNSLYLQMNSLRDEDTAVYYCARWDAAAAFDYWGQGTLVIVSS
VL: DIQLTQSPSFLSASVGDRVTITCWASQGISSYLAWYQQKPGKAPKLLIYVASTLQSGVPSRFSGSGSGTEFTLTISSLQPEDFATYFCQQLNSYPLTFGGGTKVEIK
notes: also called H2M6960N

% Internalization relative to Control I (alexa488 intensity in intracellular vesicles at 37 C, T47D cells) [1]: 145%
FACS Cell Binding (Fold Above Background) [2]: 2 fold above background
FACS Cell Binding (Fold Above Background) [3]: 25 fold above background
FACS Cell Binding (Fold Above Background) [4]: 38 fold above background
FACS Cell Binding (Fold Above Background) [5]: 1 fold above background
T½ [6]: 1 min
T½ [7]: 1 min
T½ [8]: 93 min
B3: H1H6797P (antibody, human IgG1, V domains shown)
VH: EVQLVESGGGLVQPGGSLRLSCIVSGFTFSGSWMSWVRQLPGKGLEWVANIKEDGSDSYYVDSVEGRFTISRDNAKSSLYLQMNSLRVDDTAVYFCARARTVPLHYWGQGTLVTVSS
VL: DIQMTQSPSTLSASVGDRVTITCRASQSINIWLAWYQQKPGKAPKLLIYRASYLESGVPSSFAGGGSGTEFTLTISSLQPDDFGTYYCQHYNSYPFTFGQGTKLEIK
notes: human IgG1 Fc (H1H)

% Internalization relative to Control I (alexa488 intensity in intracellular vesicles at 37 C, T47D cells) [1]: 147%
FACS Cell Binding (Fold Above Background) [2]: 2 fold above background
FACS Cell Binding (Fold Above Background) [3]: 27 fold above background
FACS Cell Binding (Fold Above Background) [4]: 34 fold above background
FACS Cell Binding (Fold Above Background) [5]: 32 fold above background
T½ [6]: 32 min
T½ [7]: 34 min
T½ [8]: 105 min
B4: H1H6807P (antibody, V domains shown)
VH: QVQLVESGGGVVQPGRSLRLSCAASGFTFSDYNMHWVRQAPGKGLEWVAVIWYDGSNKHYADSVKGRFTISRDNSKNTLYLQMNSLRAEDTAVYYCARDGFTIFGMVLDYWGQGTLVTVSS
VL: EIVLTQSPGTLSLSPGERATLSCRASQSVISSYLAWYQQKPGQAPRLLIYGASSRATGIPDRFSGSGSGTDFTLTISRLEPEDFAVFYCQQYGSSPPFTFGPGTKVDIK
notes: human IgG1 Fc (H1H)

B5: H1H6782P-SMCC-DM1 (antibody, human IgG1, V domains shown)
VH: EVQLVESGGGLVQPGRSLRLSCAASGFTFDDYAMHWVRQAPGKGLEWVSGIIWNSGHIGYGDSVKGRFTISRDNAKKSLYLQMNSLRAEDTALYYCARDSGRYQSYFDYWGQGTLVTVSS
VL: DIQMTQSPSTLSASVGDRVTITCRASHIISSWLAWYQQKPGKAPKVLIFKASSLESGVPSRFSGSGSGTEFTLTISSLQPDDFATYYCQQYNTYSRTFGQGTKVEIK
modifications: DM1 conjugated through an SMCC linker; attachment residues not stated
IC50, cell viability, T47D cells [9]: 1 nM

% Internalization relative to Control I (alexa488 intensity in intracellular vesicles at 37 C, T47D cells) [1]: 137%
FACS Cell Binding (Fold Above Background) [2]: 1 fold above background
FACS Cell Binding (Fold Above Background) [3]: 18 fold above background
FACS Cell Binding (Fold Above Background) [4]: 31 fold above background
FACS Cell Binding (Fold Above Background) [5]: 29 fold above background
T½ [6]: 9.6 min
T½ [7]: 12 min
T½ [8]: 91.3 min
B6: H1H6966N (antibody, human IgG1, V domains shown)
VH: QVQLVQSGAEVQKPGASVKVSCKVSGYTLTALSIHWVRQAPGKGLEWMGNFDPGDGETIHAQKFQGRVTMTGDTSTDTAYMELSSLRSEDTAVYYCVGVTFDYWGQGTLVTVSS
VL: EIVMTQSPATLSVSPGERATLSCRASQSVASNLAWYQQKPGQAPRLLLYGASTRATGIPARFSGSGSGTEFTLTISSLQSEDFALYYCQHYNNWPLTFGGGTKVEIK
notes: also called H2M6966N

% Internalization relative to Control I (alexa488 intensity in intracellular vesicles at 37 C, T47D cells) [1]: 139%
FACS Cell Binding (Fold Above Background) [2]: 1 fold above background
FACS Cell Binding (Fold Above Background) [3]: 29 fold above background
FACS Cell Binding (Fold Above Background) [4]: 34 fold above background
FACS Cell Binding (Fold Above Background) [5]: 1 fold above background
T½ [6]: 3 min
T½ [7]: 3 min
T½ [8]: 56 min
B7: H1H6804P (antibody, human IgG1, V domains shown)
VH: QVTLKESGPVLVKPTQTLSLTCTVSGFSLSDAGMGVSWIRQPPGKALEWLAHIFSNDGKSYSTSLKSRLTISKDTSKRQVVLTMTNMDPVDTATYYCARIRTGTYSLYLDYWGQGTLVTVSS
VL: DIQMTQSPSSLSASVGDRVTITCRASQSINSYLNWYQQKPGKAPKLLLYFASSLQSGVPSRFSGSGSGTDFTLTISSLQPEDFASYYCQESYSTPWTFGQGTKVEIK
notes: human IgG1 Fc (H1H)
